Assay results reported in patent US9969998B2, “Compositions of adenosine deaminase-2 (ADA2), variants thereof and methods of using same” (Halozyme, Inc., priority 2014, dated 2018).
Numbering of substitutions follows the chain as printed. In names and notes the source's numbering stands.

B1: R369E: ADA2 variant SEQ ID NO:33 (protein)
chain: IDETRAHLLLKEKMMRLGGRLVLNTKEELANERLMTLKIAEMKEAMRTLIFPPSMHFFQAKHLIERSQVFNILRMMPKGAALHLHDIGIVTMDWLVRNVTYRPHCHICFTPRGIMQFRFAHPTPRPSEKCSKWILLEDYRKRVQNVTEFDDSLLRNFTLVTQHPEVIYTNQNVVWSKFETIFFTISGLIHYAPVFRDYVFRSMQEFYEDNVLYMEIRARLLPVYELSGEHHDEEWSVKTYQEVAQKFVETHPEFIGIKIIYSDHRSKDVAVIAESIRMAMGLRIKFPTVVAGFDLVGHEDTGHSLHDYKEALMIPAKDGVKLPYFFHAGETDWQGTSIDRNILDALMLNTTRIGHGFALSKHPAVETYSWKKDIPIEVCPISNQVLKLVSDLRNHPVATLMATGHPMVISSDDPAMFGAKGLSYDFYEVFMGIGGMKADLRTLKQLAMNSIKYSTLLESEKNTFMEIWKKRWDKFIADVATK
modifications: human ADA2 R366E, mature numbering
B2: R23A/K374A: ADA2 variant SEQ ID NO:57 (protein)
chain: B1 chain with R20A, E366R, K371A
modifications: human ADA2 R20A/K371A, mature numbering
B3: S265N/R23E: ADA2 combination variant SEQ ID NO:61 (protein)
chain: B1 chain with R20E, S262N, E366R
modifications: human ADA2 S262N/R20E, mature numbering
B4: S265N/K374E: ADA2 combination variant SEQ ID NO:60 (protein)
chain: B1 chain with S262N, E366R, K371E
modifications: human ADA2 S262N/K371E, mature numbering

Legend:
[1] = Heparin-affinity chromatography (heparin-Sepharose, SDS-PAGE); assay type: binding; conditions: for Heparin Column Binding: compared to WT rHuADA2, 0.3 mg/mL protein
Experimental: To assess binding of variants to heparin, heparin-affinity chromatography was employed to identify heparin-bound variants. Heparin binding was tested by mixing 35 μL of rHuADA2 WT and variants with 20 μL heparin-Sepharose™ resin (GE Healthcare, Pittsburgh, Pa.; Cat. No. 17-0998-01), followed by incubating at room temperature for 30 min. The mixture was then centrifuged through a 0.22 μm centrifuge filter and the flow-through, containing the unbound protein, was collected for analysis on an SDS-PAGE gel. 35 μL of 1.5 M NaCl was added to heparin-Sepharose resin and incubated at room temperature (RT) for 10 min to elute the remaining heparin-bound protein from the heparin-Sepharose. Samples of purified WT rHuADA2 and tested variants, before and after mixing with the heparin-Sepharose resin, were analyzed by SDS-PAGE to compare the degree of heparin binding.

[2] = Adenosine deaminase (ADA) enzymatic activity assay kit; assay type: biochemical; conditions: for adenosine deaminase activity mU/mL / ΔA/min, adenosine deaminase activity: protein diluted to 5 μg/mL, serially diluted 2 fold (Table 21); for % activity vs. WT: relative to rHuADA2 WT (Table 21)
[3] = Heparin binding ELISA (heparin coated microtiter plate); conditions: for Average OD450, heparin binding ELISA: Set 2, 3 μM protein; for Heparin Binding ELISA Average OD450: single and S265N combination variants (Table 34)
Experimental: A 96-well plate was coated with 100 μL of 200 μg/mL heparin sodium salt (Calibochem, EMD Milipore, Billerica, Mass.; Cat. No. 375095) in Na2CO3 buffer (pH 9.6), overnight at 4° C. The wells were blocked with 5% milk in PBS, and washed 6 times with PBS. 3 μM of select rHuADA2 variants (see Table 20), WT rHuADA2 (positive control) and WT rHuADA1 (negative control) were added to the wells individually and incubated for 2 hours at room temperature, followed by washing 6 times with PBS. 100 μL of 1:1000 diluted horseradish peroxidase (HRP)-anti-FLAG antibody (Abcam, Cambridge, UK; Cat. No. Ab1238) was added to the wells to detect binding and incubated at room temperature for 1 hour. The ELISA reactions were developed by adding the 3,3′,5,5′-Tetramethylbenzidine (TMB) substrate solution (Pierce, Thermo Fisher Scientific, Rockford, Ill.) according the manufacturer's instructions and reading the optical density at 450 nm (OD450) on a plate reader.

[4] = Spectrophotometric adenosine deaminase assay at varying pH (pH optimum); assay type: biochemical
Experimental: Adenosine deaminase activity of rHuADA2 and variants at varying pH were assessed to determine the pH optimum of each. The adenosine deaminase activity was determined spectrophotometrically by direct measurement of changes in adenosine absorbance. […] During the deamination reaction, the absorbance of ADO decreases while that of INO increases with time. Since the dynamic changes in absorbance make it difficult to monitor activity at a single wavelength, the relative ADO activity was determined as a ratio of the ADO peak to isobestic point (i.e. the wavelength where ADO and INO have the same extinction coefficient). The isobestic point, which is 253 nm, remains unchanged and is concentration independent, so that it is the reference point to correct for volume or intensity discrepancies.
To construct the standard curve for ADO and INO, a series of solution mixtures in 0.001% Tween-20 containing different concentrations of ADO and INO were prepared. The total concentration of ADO and INO mix was 50 μM, in 1×PBS (10 mM phosphate, 137 mM NaCl, 2.7 mM KCl), pH 7.4. The samples were scanned with the wavelengths between 220 nm and 300 nm to determine the isosbestic point, where all spectra cross.
For performing the spectrophotometric adenosine deaminase assay of ADA2 and variants, a 2× solution containing 10 mM ADO in 100 mM potassium phosphate buffer (KPB), 0.1% Tween-20 at different pHs (i.e. 5.5, 6, 6.5, 6.75, 7, 7.25, 7.4, 7.75 and 8) were prepared. A separate 2× solution containing 2 μg/mL WT rHuADA2 or variants were prepared in the same 100 mM potassium phosphate buffer (KPB), 0.1% Tween-20 at the respective pH (i.e. 5.5, 6, 6.5, 6.75, 7, 7.25, 7.4, 7.75 and 8). An equal volume of the ADO solution and the ADA2 solution (wildtype or variants) were mixed to initiate reaction. At each time point (i.e. 1, 3, 5, 7, 9, 11, 13 and 15 min), a small aliquot (4 μl) was removed and diluted 50 times by adding to 196 μl 1×PBS, pH 7.4. The diluted samples were further diluted 2 fold (in duplicates) by adding 85 μl samples to 85 μl 1×PBS in a UV-transparent half area plate. The absorbance at 253 nm and 261 nm were measured of each diluted sample.
Adenosine concentration was determined using the A261/A253 ratio and the standard curve. Adenosine deaminase activity was measured by negative change in ADO concentration per min×100.

[5] = Kinetic assessment of adenosine deaminase activity (ammonia assay, Michaelis-Menten); assay type: biochemical; conditions: for Km / Vmax / kcat: [E] = 8.5 nM; for kcat: kcat=Vmax/0.0085/60; for kinetics properties compared to WT: pH 7.6 and pH 6.5
Experimental: Adenosine deaminase activity was determined by the measurement of ammonia released from adenosine when broken down to inosine. Ammonia was measured using a commercially available Ammonia Assay kit (Cat. No. AA0100, Sigma-Aldrich, St. Louis, Mo.). The kit contains dry reagents containing α-ketoglutaric acid and NADPH, which were reconstituted with 5 mL water prior to use in the assay. Ammonia reacts with α-ketogluaric acid (KGA) and reduced nicotinamide adenine dinucleotide phosphate (NADPH) in the presence of L-glutamate dehydrogenase (GDH).
Kinetics parameters of rHuADA2 WT and variants were compared using this assay at different adenosine concentrations at pH 7.6 and 6.5. Adenosine concentrations ranging from 20 μM to 20 mM were used. Sub-molar concentration of adenosine stock was prepared in 1N NaOH.
For the enzymatic assays at pH 7.6, adenosine was serially diluted with 100 mM sodium acetate (NaOAc), pH 4.9. A 2× reaction mixture was prepared, containing reconstituted ammonia assay reagent (containing about 4 mM α-ketoglutarate and about 300 μM NADPH), WT rHuADA2 or variants at 1 μg/mL (17 nM) and glutamate dehydrogenase (GDH, 1:50 dilution). 85 μL of adenosine was added to 85 μL 2× mixture in duplicate in a UV-transparent half-area plate. The change in absorbance (ΔA) at 340 nm over time at room temperature was monitored.
For the enzymatic assay at pH 6.5, adenosine was serially diluted with 200 mM piperazine-N,N′-bis(2-ethanesulfonic acid) (PIPES), pH 6.5. A 2× reaction mixture in 200 mM PIPES, pH 6.5 was prepared, containing 4 mM α-ketoglutarate, 300 μM NADPH, 1 μg/mL (17 nM) rHuADA2 or variants and 50 U/mL GDH (Cat No. G2626, Sigma-Aldrich). The enzymatic reaction was initiated by adding equal volume of adenosine to the 2× mixture in a UV-transparent half-area plate as described above, and the change in absorbance (AA) at 340 nm over time at room temperature was monitored.
Adenosine deaminase activity in mU/mL (μM/min equivalent) was calculated using the following formula: 1 mU/mL=−(−ΔA/min×Tv)/(Sv×ϵ×1) • where Tv=total volume (170 μL), Sv=sample volume (85 μL), ϵ=6.22×10^−3 μM^−1 cm^−1, 1=1 cm.
The activity data were fitted with non-linear regression of Michaelis-Menten equation using Graphpad Prism software to obtain Km and Vmax. Other kinetics parameters such as kcat and kcat/Km were also determined.

[6] = Thermal stability by differential scanning fluorimetry (DSF); assay type: physicochemical; conditions: 0.1-1 mg/mL protein
Experimental: The stability of the rHuADA2 WT and variants was measured by differential scanning fluorimetry (DSF) at increasing temperatures. DSF measures conformational stability, which correlates with thermal stability. The melting temperature (Tm) in DSF is defined as the midpoint of the protein unfolding transition.
Non-PEGylated WT rHuADA2, non-PEGylated rHuADA2 variants, and PEGylated forms of WT rHuADA2 and rHuADA2 variants were prepared at concentrations of 0.1-1 mg/mL and mixed with the ROX™ protein thermal shift dye (Applied Biosystems, Carlsbad, Calif.; Cat. No. 4461146) to a final dye concentration that corresponds to a 125-fold dilution of the stock ROX™ solution. Protein samples were then loaded into 96-well plate at a volume of 20 μL/well in triplicate. A ViiA7 RT-PCR System (Applied Biosystems, Carlsbad, Calif.) was used to measure the shift in fluorescence as the temperature of the samples were increased. The reactions were subjected to the following steps: incubation at 25° C. for 2 min; ramping of temperature from 25 to 99° C. at a rate of 0.05° C. per second; followed by a 99° C. incubation for 2 min. The wavelengths used for emission and excitation were 623 nanometers (nm) and 580 nm, respectively.

Heparin Column Binding [1]	% activity vs. WT [2] [%]	Average OD450, heparin binding ELISA [3]	Molecule	adenosine deaminase activity mU/mL [2] [mU/mL]	ΔA/min, adenosine deaminase activity [2]	Adenosine deaminase activity Δ [ADO]/min × (−100) ([4]; pH 5.5)	Adenosine deaminase activity Δ [ADO]/min × (−100) ([4]; pH 6)	Adenosine deaminase activity Δ [ADO]/min × (−100) ([4]; pH 6.5)	Adenosine deaminase activity Δ [ADO]/min × (−100) ([4]; pH 6.75)	Adenosine deaminase activity Δ [ADO]/min × (−100) ([4]; pH 7)	Adenosine deaminase activity Δ [ADO]/min × (−100) ([4]; pH 7.25)	Adenosine deaminase activity Δ [ADO]/min × (−100) ([4]; pH 7.4)	Adenosine deaminase activity Δ [ADO]/min × (−100) ([4]; pH 7.75)	Adenosine deaminase activity Δ [ADO]/min × (−100) ([4]; pH 8)	Km ([5]; pH 6.5) [µM]	Vmax ([5]; pH 6.5) [µM/min]	kcat ([5]; pH 6.5) [s⁻¹]	Km ([5]; pH 7.6) [µM]	Vmax ([5]; pH 7.6) [µM/min]	kcat ([5]; pH 7.6) [s⁻¹]	also measured
Reduced	148.5	0.18	B1	115.9	50.4																heparin binding compared to WT [1]: attenuated heparin binding; enzymatic activity relative to WT rHuADA2 [2]: improved enzymatic activity
Reduced	150.7	0.17	B2	117.6	51.1																
			B3			27.34	38.26	45.58	48.49	51.90	56.12	50.44	24.42	4.63	1430	53.25	104.41	2900	63.13	123.78	kinetics properties compared to WT [5]: greatest improvements in catalytic activity at pH 6.5; Tm, melting temperature by DSF [6]: 59.6 °C; Heparin Binding ELISA Average OD450 [3]: 1.03
			B4			31.84	44.31	50.23	54.55	59.68	60.07	57.15	28.28	1.77	1410	57.13	112.02	2540	87.44	171.45	kinetics properties compared to WT [5]: greatest improvements in catalytic activity at pH 6.5; Tm, melting temperature by DSF [6]: 61.3 °C; Heparin Binding ELISA Average OD450 [3]: 0.6
